Measurements from IntAct's records for PubMed 31515488.
Blank lines part the entries; values can stand above or below the substance they belong to.

How the values were obtained:
efhc2_human EFHC2 = target: T1, efhc2_human EFHC2 (UniProt Q5JST6)
T1 sequence: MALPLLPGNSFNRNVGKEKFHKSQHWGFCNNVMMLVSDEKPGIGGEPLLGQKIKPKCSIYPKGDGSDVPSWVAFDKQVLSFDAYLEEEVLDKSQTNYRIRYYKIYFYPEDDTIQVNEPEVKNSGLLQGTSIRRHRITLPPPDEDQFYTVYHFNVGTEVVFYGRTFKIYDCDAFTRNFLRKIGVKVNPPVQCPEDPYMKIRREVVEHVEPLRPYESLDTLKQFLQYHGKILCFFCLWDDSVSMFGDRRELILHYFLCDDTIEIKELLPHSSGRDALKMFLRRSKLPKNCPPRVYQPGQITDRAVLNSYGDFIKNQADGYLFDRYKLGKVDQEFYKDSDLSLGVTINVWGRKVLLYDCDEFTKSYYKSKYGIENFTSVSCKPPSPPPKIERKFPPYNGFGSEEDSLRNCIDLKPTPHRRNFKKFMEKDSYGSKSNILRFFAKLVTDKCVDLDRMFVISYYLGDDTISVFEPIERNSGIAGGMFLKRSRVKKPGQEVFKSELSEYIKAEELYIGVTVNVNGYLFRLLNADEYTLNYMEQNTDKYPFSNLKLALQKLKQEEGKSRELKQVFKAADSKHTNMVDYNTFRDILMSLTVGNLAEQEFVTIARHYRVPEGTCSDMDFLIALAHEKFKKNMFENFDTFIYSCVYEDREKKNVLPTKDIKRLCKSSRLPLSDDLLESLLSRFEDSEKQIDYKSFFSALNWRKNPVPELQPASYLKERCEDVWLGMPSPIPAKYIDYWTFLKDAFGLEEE

dpyl5_human DPYSL5 = target: T2, dpyl5_human DPYSL5 (UniProt Q9BPU6)
T2 sequence: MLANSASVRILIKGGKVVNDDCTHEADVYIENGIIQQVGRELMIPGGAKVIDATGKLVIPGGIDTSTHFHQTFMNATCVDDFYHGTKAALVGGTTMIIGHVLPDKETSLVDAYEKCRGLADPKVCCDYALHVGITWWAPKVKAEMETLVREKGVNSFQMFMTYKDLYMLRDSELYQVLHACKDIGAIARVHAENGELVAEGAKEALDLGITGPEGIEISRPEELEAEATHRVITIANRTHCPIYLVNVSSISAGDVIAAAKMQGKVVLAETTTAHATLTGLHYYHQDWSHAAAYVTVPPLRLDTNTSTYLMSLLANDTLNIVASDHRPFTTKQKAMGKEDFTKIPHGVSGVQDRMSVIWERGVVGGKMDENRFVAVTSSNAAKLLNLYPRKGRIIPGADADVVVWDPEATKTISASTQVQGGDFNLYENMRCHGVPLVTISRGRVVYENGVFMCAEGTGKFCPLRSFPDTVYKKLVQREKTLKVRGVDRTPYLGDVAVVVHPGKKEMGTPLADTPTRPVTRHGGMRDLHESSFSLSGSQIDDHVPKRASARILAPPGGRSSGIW

gors2_human GORASP2 = gors2_human GORASP2 (UniProt Q9H8Y8)
dpyl3_human DPYSL3 = dpyl3_human DPYSL3 (UniProt Q14195)
dpyl2_human DPYSL2 [1] = target: dpyl2_human DPYSL2 (UniProt Q16555)
lerl1_human LEPROTL1 = lerl1_human LEPROTL1 (UniProt O95214)
npal3_human NIPAL3 = npal3_human NIPAL3 (UniProt Q6P499)
lnx1_human LNX1 = lnx1_human LNX1 (UniProt Q8TBB1)
ck068_human C11orf68 = ck068_human C11orf68 (UniProt Q9H3H3)
cryaa_human CRYAA = cryaa_human CRYAA (UniProt P02489)
cryaa_human CRYAA, sequence (P02489 whole entry): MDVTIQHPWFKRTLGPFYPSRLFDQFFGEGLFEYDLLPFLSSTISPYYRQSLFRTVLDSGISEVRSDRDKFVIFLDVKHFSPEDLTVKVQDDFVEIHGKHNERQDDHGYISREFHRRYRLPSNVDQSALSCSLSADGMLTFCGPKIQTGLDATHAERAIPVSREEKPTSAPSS

phs_human PCBD1 = phs_human PCBD1 (UniProt P61457)
phs_human PCBD1, sequence (P61457 whole entry): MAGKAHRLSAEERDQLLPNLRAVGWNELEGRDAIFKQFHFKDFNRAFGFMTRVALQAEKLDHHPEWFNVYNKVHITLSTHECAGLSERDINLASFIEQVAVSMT

prdx3_human PRDX3 = target: T3, prdx3_human PRDX3 (UniProt P30048)
T3 sequence: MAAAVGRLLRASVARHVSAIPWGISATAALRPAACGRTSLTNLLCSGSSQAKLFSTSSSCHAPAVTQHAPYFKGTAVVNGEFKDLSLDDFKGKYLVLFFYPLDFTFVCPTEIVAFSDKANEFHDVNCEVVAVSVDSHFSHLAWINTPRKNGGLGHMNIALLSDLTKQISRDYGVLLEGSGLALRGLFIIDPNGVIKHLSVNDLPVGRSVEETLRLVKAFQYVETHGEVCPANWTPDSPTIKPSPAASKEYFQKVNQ

acy3_human ACY3 = target: T4, acy3_human ACY3 (UniProt Q96HD9)
T4 sequence: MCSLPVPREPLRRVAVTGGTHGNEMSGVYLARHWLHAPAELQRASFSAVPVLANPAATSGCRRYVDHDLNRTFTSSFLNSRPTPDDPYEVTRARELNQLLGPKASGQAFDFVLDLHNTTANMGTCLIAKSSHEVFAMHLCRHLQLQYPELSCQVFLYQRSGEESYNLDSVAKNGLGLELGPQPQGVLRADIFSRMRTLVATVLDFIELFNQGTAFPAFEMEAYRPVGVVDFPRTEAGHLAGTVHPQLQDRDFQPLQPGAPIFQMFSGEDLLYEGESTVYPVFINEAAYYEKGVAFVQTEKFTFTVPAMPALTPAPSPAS

ei2ba_human EIF2B1 = ei2ba_human EIF2B1 (UniProt Q14232)
ei2ba_human EIF2B1, sequence (Q14232 whole entry): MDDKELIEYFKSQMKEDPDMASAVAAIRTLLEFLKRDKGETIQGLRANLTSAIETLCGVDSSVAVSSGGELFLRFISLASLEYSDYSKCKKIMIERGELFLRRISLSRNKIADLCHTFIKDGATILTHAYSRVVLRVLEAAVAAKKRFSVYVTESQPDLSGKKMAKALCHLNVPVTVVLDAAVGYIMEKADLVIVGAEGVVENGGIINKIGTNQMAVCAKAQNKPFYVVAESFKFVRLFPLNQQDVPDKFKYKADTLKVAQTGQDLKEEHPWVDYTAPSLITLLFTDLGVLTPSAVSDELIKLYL

dmc1_human DMC1 = target: T5, dmc1_human DMC1 (UniProt Q14565)
T5 sequence: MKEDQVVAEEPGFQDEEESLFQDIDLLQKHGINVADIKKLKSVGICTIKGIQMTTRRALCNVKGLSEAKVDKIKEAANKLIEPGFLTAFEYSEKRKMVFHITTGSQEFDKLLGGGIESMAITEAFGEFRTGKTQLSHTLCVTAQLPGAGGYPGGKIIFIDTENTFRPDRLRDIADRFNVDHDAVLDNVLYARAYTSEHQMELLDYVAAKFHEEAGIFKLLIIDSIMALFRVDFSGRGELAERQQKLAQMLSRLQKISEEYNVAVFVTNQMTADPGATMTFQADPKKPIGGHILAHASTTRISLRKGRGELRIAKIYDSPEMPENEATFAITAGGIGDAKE

zmat1_human ZMAT1 = zmat1_human ZMAT1 (UniProt Q5H9K5)
dpyl2_human DPYSL2 [2] = target: dpyl2_human DPYSL2 (UniProt Q16555); remark: listed apart in the source
nasp_human NASP = nasp_human NASP (UniProt P49321)
nasp_human NASP, sequence (P49321 whole entry): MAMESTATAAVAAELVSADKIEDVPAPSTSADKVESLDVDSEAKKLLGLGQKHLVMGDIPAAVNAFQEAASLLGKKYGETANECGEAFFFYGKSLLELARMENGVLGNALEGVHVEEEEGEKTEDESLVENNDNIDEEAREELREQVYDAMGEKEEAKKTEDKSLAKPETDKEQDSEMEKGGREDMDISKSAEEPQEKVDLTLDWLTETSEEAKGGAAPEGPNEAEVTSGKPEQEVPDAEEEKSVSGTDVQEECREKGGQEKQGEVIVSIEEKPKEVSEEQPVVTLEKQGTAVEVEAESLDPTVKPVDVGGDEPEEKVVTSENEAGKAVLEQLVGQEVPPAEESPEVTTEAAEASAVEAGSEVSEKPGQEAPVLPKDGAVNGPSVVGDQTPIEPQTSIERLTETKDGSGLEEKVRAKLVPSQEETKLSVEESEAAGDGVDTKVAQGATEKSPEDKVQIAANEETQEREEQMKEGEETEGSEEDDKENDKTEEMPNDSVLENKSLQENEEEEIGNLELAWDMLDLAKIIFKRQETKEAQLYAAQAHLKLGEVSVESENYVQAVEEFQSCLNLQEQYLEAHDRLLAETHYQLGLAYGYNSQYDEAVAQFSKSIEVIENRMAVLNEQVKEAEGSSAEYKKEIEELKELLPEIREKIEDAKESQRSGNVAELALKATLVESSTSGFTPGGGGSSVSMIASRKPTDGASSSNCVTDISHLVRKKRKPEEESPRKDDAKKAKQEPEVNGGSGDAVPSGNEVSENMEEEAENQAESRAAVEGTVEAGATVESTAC

bnip3_human BNIP3 = bnip3_human BNIP3 (UniProt Q12983)
bnip3_human BNIP3, sequence (Q12983 whole entry): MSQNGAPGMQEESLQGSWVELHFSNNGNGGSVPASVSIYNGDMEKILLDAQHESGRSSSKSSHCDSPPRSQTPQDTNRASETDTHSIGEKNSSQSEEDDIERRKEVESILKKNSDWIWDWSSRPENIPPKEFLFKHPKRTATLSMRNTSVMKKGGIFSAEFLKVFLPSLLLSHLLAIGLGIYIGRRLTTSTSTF

creb3_human CREB3 = target: T6, creb3_human CREB3 (UniProt O43889)
T6 sequence: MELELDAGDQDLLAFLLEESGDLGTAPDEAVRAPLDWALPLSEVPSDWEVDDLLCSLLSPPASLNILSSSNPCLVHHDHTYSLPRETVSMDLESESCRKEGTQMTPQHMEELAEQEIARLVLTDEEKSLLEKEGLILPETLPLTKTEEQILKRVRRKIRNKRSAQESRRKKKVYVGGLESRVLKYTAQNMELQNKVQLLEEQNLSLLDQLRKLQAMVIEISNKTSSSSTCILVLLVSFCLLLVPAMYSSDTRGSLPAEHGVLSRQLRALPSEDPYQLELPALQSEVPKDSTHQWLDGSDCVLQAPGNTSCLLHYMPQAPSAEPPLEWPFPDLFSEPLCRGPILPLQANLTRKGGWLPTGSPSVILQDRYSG

BCL2L13 = BCL2L13 (UniProt Q9BXK5)
ppla_human PLN = ppla_human PLN (UniProt P26678)
ppla_human PLN, sequence (P26678 whole entry): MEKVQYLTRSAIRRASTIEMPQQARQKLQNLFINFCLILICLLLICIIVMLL

vatl_human ATP6V0C = vatl_human ATP6V0C (UniProt P27449)
mal_human MAL = mal_human MAL (UniProt P21145)
mal_human MAL, sequence (P21145 whole entry): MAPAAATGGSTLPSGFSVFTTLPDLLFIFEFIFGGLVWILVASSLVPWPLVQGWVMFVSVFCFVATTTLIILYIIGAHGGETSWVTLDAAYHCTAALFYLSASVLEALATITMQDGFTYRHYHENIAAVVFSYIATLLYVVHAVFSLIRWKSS

emp3_human EMP3 = emp3_human EMP3 (UniProt P54852)
emp3_human EMP3, sequence (P54852 whole entry): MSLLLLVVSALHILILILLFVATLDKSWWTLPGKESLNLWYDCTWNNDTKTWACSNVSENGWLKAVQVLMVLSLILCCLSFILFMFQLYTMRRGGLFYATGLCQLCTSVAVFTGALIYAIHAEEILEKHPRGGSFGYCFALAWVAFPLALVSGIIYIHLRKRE

aakb2_human PRKAB2 = aakb2_human PRKAB2 (UniProt O43741)
aakb2_human PRKAB2, sequence (O43741 whole entry): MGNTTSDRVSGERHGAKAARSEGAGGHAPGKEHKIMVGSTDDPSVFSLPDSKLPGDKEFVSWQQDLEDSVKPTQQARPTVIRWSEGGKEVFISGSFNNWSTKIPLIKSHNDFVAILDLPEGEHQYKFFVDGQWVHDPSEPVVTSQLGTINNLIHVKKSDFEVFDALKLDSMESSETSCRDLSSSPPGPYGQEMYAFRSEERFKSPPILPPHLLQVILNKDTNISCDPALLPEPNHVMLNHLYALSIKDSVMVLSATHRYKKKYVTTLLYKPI

zbt24_human ZBTB24 = zbt24_human ZBTB24 (UniProt O43167)
traf4_human TRAF4 = target: T7, traf4_human TRAF4 (UniProt Q9BUZ4)
T7 sequence: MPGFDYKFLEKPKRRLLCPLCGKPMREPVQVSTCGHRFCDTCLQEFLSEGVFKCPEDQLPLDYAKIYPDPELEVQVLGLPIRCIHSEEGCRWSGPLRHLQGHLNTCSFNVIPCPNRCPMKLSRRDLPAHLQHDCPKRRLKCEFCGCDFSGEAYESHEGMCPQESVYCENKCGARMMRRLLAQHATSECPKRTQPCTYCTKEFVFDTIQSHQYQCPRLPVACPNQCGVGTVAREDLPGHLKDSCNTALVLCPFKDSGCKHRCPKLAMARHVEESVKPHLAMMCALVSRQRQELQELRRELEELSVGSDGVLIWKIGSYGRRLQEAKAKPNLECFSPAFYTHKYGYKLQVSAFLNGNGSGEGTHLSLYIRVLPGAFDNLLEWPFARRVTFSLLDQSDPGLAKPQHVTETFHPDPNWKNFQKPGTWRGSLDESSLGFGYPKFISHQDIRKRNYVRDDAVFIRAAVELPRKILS

pacn1_human PACSIN1 = pacn1_human PACSIN1 (UniProt Q9BY11)
pls1_human PLSCR1 = pls1_human PLSCR1 (UniProt O15162)
pls1_human PLSCR1, sequence (O15162 whole entry): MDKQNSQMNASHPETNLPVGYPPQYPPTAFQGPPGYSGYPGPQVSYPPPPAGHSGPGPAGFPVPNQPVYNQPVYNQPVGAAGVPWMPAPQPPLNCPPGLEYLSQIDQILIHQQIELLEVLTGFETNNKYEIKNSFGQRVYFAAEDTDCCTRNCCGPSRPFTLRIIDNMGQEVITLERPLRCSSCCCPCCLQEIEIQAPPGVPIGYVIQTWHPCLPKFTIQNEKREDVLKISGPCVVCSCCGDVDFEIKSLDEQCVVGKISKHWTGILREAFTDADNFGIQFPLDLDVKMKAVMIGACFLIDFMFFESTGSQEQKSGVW

trip6_human TRIP6 = trip6_human TRIP6 (UniProt Q15654)
cep70_human CEP70 = cep70_human CEP70 (UniProt Q8NHQ1)
cep70_human CEP70, sequence (Q8NHQ1 whole entry): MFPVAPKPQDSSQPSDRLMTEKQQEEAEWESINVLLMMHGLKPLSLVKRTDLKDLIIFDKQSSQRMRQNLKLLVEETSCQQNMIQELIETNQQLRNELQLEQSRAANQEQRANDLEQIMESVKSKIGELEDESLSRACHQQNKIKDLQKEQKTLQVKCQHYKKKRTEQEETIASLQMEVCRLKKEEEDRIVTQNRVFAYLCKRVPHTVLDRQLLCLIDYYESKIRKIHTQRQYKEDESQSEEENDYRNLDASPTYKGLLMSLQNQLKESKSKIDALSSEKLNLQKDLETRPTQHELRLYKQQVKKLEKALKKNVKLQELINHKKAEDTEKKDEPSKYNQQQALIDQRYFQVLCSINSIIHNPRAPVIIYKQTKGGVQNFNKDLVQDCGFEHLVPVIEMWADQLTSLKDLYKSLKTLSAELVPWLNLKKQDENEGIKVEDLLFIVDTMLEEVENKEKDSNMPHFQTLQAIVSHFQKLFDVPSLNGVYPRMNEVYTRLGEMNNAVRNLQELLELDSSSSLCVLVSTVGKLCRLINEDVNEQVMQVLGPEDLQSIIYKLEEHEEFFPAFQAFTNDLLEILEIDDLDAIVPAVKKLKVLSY

elmo1_human ELMO1 = elmo1_human ELMO1 (UniProt Q92556)
elmo1_human ELMO1, sequence (Q92556 whole entry): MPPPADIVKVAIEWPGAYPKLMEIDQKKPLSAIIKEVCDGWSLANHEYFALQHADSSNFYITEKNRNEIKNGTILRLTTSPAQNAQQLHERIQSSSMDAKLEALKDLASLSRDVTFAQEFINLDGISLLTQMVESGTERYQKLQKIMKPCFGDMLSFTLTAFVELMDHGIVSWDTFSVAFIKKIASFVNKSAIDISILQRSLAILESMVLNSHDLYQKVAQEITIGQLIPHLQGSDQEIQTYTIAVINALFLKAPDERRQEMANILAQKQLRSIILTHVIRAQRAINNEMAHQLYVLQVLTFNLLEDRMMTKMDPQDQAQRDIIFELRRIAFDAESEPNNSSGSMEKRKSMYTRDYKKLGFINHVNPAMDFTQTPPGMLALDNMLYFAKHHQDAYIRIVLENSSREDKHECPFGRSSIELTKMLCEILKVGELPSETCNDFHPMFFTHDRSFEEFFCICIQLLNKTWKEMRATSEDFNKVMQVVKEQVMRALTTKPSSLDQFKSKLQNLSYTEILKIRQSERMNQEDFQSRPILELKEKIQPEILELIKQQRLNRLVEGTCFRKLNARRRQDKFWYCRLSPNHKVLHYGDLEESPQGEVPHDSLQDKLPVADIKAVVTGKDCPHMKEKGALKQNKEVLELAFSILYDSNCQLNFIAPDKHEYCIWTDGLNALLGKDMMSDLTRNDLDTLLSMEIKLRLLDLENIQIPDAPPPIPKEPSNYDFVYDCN

zsc32_human ZSCAN32 = zsc32_human ZSCAN32 (UniProt Q9NX65)

Isoform 1 of Ectodysplasin-A (Homo sapiens), Q92838-1 P118L, sequence (Q92838 whole entry P118L, canonical isoform): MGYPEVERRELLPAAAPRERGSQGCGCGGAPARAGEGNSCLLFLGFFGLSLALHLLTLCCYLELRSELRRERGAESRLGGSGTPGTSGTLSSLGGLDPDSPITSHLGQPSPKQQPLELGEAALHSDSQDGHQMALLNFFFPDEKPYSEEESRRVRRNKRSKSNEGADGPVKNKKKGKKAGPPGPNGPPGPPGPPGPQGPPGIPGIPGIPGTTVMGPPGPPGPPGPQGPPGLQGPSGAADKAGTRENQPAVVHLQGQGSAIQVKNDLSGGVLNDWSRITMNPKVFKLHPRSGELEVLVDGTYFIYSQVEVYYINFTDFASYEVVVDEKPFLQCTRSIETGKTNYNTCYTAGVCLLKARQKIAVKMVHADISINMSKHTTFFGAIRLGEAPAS
Ectodysplasin-A (Homo sapiens), Q92838 R334H, sequence (Q92838 whole entry R334H): as the sequence (Q92838 whole entry P118L, canonical isoform) above, with L118P, R334H counted along it
Zinc finger protein 302 (Homo sapiens), Q9NR11 R391H, sequence (Q9NR11 whole entry R391H): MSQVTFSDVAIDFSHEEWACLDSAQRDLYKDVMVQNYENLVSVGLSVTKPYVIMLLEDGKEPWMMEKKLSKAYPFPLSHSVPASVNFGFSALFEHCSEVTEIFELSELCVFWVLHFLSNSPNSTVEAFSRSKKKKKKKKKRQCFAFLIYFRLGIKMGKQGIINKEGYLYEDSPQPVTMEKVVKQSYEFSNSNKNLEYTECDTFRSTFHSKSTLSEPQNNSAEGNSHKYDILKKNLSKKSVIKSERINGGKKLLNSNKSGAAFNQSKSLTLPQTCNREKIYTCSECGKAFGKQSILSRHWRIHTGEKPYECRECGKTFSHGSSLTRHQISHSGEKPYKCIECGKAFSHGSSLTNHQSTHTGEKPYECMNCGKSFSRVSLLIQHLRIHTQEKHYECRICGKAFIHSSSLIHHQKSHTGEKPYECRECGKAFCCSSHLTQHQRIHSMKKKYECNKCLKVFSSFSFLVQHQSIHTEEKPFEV

effect of a mutation on the interaction (efhc2_human EFHC2): with no effect
Substance: Chloride intracellular channel protein 3 (Homo sapiens) (from UniProt O95833) M210L

effect of a mutation on the interaction (dpyl5_human DPYSL5): with no effect | effect of a mutation on the interaction (gors2_human GORASP2): disrupting interaction strength | effect of a mutation on the interaction (dpyl3_human DPYSL3): disrupting interaction strength | effect of a mutation on the interaction (dpyl2_human DPYSL2 [1]): disrupting interaction strength
Substance: Dihydropyrimidinase-related protein 2 (Homo sapiens) (from UniProt Q16555-1) R481C

effect of a mutation on the interaction (lerl1_human LEPROTL1): with no effect | effect of a mutation on the interaction (npal3_human NIPAL3): with no effect
Substance: Ectodysplasin-A (Homo sapiens), Q92838 R334H

effect of a mutation on the interaction (lnx1_human LNX1): with no effect | effect of a mutation on the interaction (ck068_human C11orf68): with no effect
Substance: Eukaryotic translation initiation factor 4H (Homo sapiens), Q15056 G164V

effect of a mutation on the interaction (cryaa_human CRYAA): with no effect | effect of a mutation on the interaction (phs_human PCBD1): with no effect | effect of a mutation on the interaction (prdx3_human PRDX3): disrupting interaction strength | effect of a mutation on the interaction (acy3_human ACY3): with no effect | effect of a mutation on the interaction (ei2ba_human EIF2B1): with no effect | effect of a mutation on the interaction (dmc1_human DMC1): with no effect | effect of a mutation on the interaction (zmat1_human ZMAT1): with no effect | effect of a mutation on the interaction (dpyl2_human DPYSL2 [2]): with no effect
Substance: Golgi reassembly-stacking protein 2 (Homo sapiens) (from UniProt Q9H8Y8) S441C

effect of a mutation on the interaction (nasp_human NASP): with no effect
Substance: Histone H3.3C (Homo sapiens) (from UniProt Q6NXT2) R53C

effect of a mutation on the interaction (bnip3_human BNIP3): with no effect
Substance: Integral membrane protein 2B (Homo sapiens) (from UniProt Q9Y287) I237T

effect of a mutation on the interaction (creb3_human CREB3): with no effect | effect of a mutation on the interaction (BCL2L13): with no effect
Substance: Integral membrane protein 2B (Homo sapiens) (from UniProt Q9Y287) P31H

effect of a mutation on the interaction (ppla_human PLN): with no effect | effect of a mutation on the interaction (vatl_human ATP6V0C): with no effect | effect of a mutation on the interaction (mal_human MAL): with no effect | effect of a mutation on the interaction (emp3_human EMP3): with no effect
Substance: Isoform 1 of Ectodysplasin-A (Homo sapiens), Q92838-1 P118L

effect of a mutation on the interaction (aakb2_human PRKAB2): with no effect | effect of a mutation on the interaction (zbt24_human ZBTB24): with no effect
Substance: Krueppel-like factor 15 (Homo sapiens), Q9UIH9 A199V

effect of a mutation on the interaction (traf4_human TRAF4): with no effect
Substance: Large ribosomal subunit protein bL28m (Homo sapiens) (from UniProt Q13084) D160E

effect of a mutation on the interaction (pacn1_human PACSIN1): disrupting interaction strength
Substance: Protein kinase C and casein kinase substrate in neurons protein 3 (Homo sapiens) (from UniProt Q9UKS6) A61V

effect of a mutation on the interaction (pls1_human PLSCR1): with no effect
Substance: Regulator of G-protein signaling 3 (Homo sapiens), P49796-4 R528Q

effect of a mutation on the interaction (trip6_human TRIP6): with no effect
Substance: Rho-related GTP-binding protein RhoQ (Homo sapiens), P17081 E68K

effect of a mutation on the interaction (cep70_human CEP70): with no effect
Substance: Zinc finger protein 302 (Homo sapiens), Q9NR11 R391H

Substance: Zinc finger protein 398 (Homo sapiens), Q8TD17 E87D
effect of a mutation on the interaction (elmo1_human ELMO1): with no effect

effect of a mutation on the interaction (zsc32_human ZSCAN32): with no effect
Substance: Zinc finger protein with KRAB and SCAN domains 1 (Homo sapiens), P17029 R155K
